What was measured:
E. coli Rho [1] = assay: Rho-mediated RNA release from stalled (roadblocked) elongation complex; assay type: biochemical, Escherichia coli; conditions: Fig. S4B
P167L Rho [2] = target: T1, P167L Rho (Escherichia coli, UniProt P0AG30, P167L); assay type: binding; conditions: Rho:ligand in μg: 1:6 (peptide 16), 1:4 (peptide 33), 1:3 (Psu); 1 mM ATP, pH 8.0, 37 °C, 20 min; SD of two or three measurements
WT Rho = WT Rho (Escherichia coli, UniProt P0AG30); conditions: earlier work; ref [11]; cited from earlier work
Sequence of WT Rho (P0AG30 whole entry, the tested form may be a part): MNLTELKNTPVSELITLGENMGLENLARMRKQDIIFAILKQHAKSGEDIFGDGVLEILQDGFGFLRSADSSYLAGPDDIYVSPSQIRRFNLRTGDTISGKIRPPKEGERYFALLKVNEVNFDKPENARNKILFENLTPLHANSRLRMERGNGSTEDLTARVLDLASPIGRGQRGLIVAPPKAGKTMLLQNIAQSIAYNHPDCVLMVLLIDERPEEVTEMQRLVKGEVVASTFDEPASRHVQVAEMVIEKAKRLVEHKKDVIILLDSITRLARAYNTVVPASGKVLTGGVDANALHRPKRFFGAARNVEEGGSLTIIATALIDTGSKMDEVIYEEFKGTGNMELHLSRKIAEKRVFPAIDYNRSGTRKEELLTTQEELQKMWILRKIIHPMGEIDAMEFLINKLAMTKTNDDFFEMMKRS

[3] = system: Rho-dependent termination (trac and trpt′ lacZ fusions); assay type: cell-based, Escherichia coli; conditions: qRT-PCR, 2−ΔΔCt relative to empty vector; 100 μM IPTG (20 μM for Psu); at least three biological replicates
MG1655 gene expression = assay type: cell-based, Escherichia coli; conditions: qRT-PCR, relative to empty vector
P167L Rho [4] = target: T1, P167L Rho; conditions: ref [11]; cited from earlier work
Mycobacterium bovis BCG = assay type: cell-based
[5] = system: Rho-dependent termination (trpt′ and trac terminators, lacZ reporter); assay type: cell-based, Escherichia coli; conditions: trpt′ and trac, LB-X-gal, induction by 50 μM IPTG
E. coli Rho [6] = conditions: cited from earlier work
[7] = system: Rho proteins from pathogenic bacteria; assay type: biochemical; conditions: 35 μM peptide 33, 50 nM Rho, E. coli RNAP stalled EC, trpt′
[8] = system: Rho point mutants, R144E, R146E, and, E148R; conditions: cited from earlier work
pathogenic Rho proteins = conditions: ref [13]; cited from earlier work
E. coli Rho [9] = conditions: compared with peptide 33; ref [9]; cited from earlier work
Description: Next, we assayed the peptide-mediated inhibition of the in vitro transcription termination functions of the Rho. We used a linear DNA template where a trpt′ terminator is fused downstream of a strong T7A1 promoter. On this template, efficient transcription termination over a terminator zone is usually observed in the presence of Rho (Fig. 3D; ([16])). The amount of run-off transcripts at the end of this template gives the measure of Rho inhibition by the peptides. We observed that the amount of ...

[10] = system: Mycobacterium smegmatis mc^2155; assay type: cell-based
[11] = system: Rho-dependent termination (galEP3 reporter); assay: in vivo Rho-dependent termination, galEP3 reporter, MacConkey-galactose plates; assay type: cell-based, Escherichia coli; conditions: MC4100 galEP3, MacConkey-galactose plates, overexpression

B1: Psu: bacteriophage P4 capsid protein, natural Rho antagonist, ∼42-kDa dimer (protein)
chain: MESTALQQAFDTCQNNKAAWLQRKNELAAAEQEYLRLLSGEGRNVSRLDELRNIIEVRKWQVNQAAGRYIRSHEAVQHISIRDRLNDFMQQHGTALAAALAPELMGYSELTAIARNCAIQRATDALREALLSWLAKGEKINYSAQDSDILTTIGFRPDVASVDDSREKFTPAQNMIFSRKSAQLASRQSV
inhibition of Rho-induced RNA release from stalled EC (in words) (E. coli Rho [1]; Fig. 3E): significantly inhibited
Frac. of RNA released (%) (E. coli Rho [1]; Psu 5.0, Rho 50 nM): 12 ± 0.4%
Fraction of Rho associated (%) (P167L Rho [2]): 49 ± 5%
in vitro stable complex with WT Rho (in words) (WT Rho): failed to obtain a stable in vitro Rho–Psu complex with the WT Rho
enhancement of expression of Plac-trac-lacZ fusion [3]: 28 fold
upregulation of tested genes (in words) (MG1655 gene expression): highest level of upregulations of the tested genes
in vitro stable complex with P167L Rho (in words) (P167L Rho [4]): stable complex between Psu and Rho could form if a mutant Rho, P167L, was used
growth phenotype upon streaking (in words) (Mycobacterium bovis BCG): very sick phenotype
colour of colonies, lacZ reporter (in words) [5]: deep blue colonies
rate of RNA-dependent ATP hydrolysis of Rho (in words) (E. coli Rho [6]): reduced the rate of RNA-dependent ATP hydrolysis
inhibition of RNA release by pathogenic Rho proteins (in words) [7]: could inhibit the termination process by all the different Rho proteins
binding of Rho mutants R144E, R146E, E148R (in words) [8]: did not bind to Psu
inhibition of ATP hydrolysis of Salmonella and Vibrio Rho with poly(C) RNA (in words) (pathogenic Rho proteins): too fast to be inhibited by Psu
in vitro Rho inhibition in termination assay (in words) (E. coli Rho [9]): A similar level of in vitro Rho inhibition
growth phenotype upon streaking (in words) [10]: very sick phenotype
transformants obtained (in words) [10]: fewer colonies than those obtained from the transformation with the empty vector
colour of colonies, galEP3 reporter (in words) [11]: appearance of red colonies
